Source: US10160948B2, “Pluripotent embryonic-like stem cells, compositions, methods and uses thereof” (ABT HOLDING COMPANY, priority 1999, dated 2018)

What was measured:
[1] = test system: progenitor stem cells; assay: Proliferation and phenotypic responses to bioactive factors: progenitor cells; format: cell-based
Source text: (§1) Having access to mixed populations of progenitor stem cells, progenitor stem cell clones, and pluripotent stem cell clones permits one to address the influence of various bioactive factors (e.g. recombinant growth factors, purified compounds, and novel inductive factors) on the growth characteristics and phenotypic expression of these stem cells.
Cryopreserved cells are thawed and plated in MSC-1 at 5, 10, or 20×10^3 cells per well of gelatinized 24-well plates following the standard protocol. Twenty-four hours after initial plating the medium is changed to testing medium (TM) 1 to 6 (TM-1, TM-2, TM-3, TM-4, TM-5, or TM-6). TM-1 to TM-4 consist of Ultraculture (cat. no. 12-725B, lot. nos. OMO455 [TM-1], 1M1724 [TM-2], 2M0420 [TM-3], or 2M0274 [TM-4], Bio-Whittaker, Walkersville, Md.), medium (EMEM or Opti-MEM 0.01 mM β-mercaptoethanol), and 1% (v/v) antibiotic-antimycotic, pH 7.4. TM-5 consists of 98% (v/v) medium, 1% (v/v) HS, and 1% (v/v) antibiotic-antimycotic, pH 7.4. TM-6 consists of 98.5% (v/v) medium, 0.5% (v/v) HS, and 1% (v/v) antibiotic-antimycotic, pH 7.4. […] Four testing media (TM#'s 1-4), each containing various concentrations of Ultraculture, were used as. […]

[2] = test system: pluripotent stem cells; assay: Proliferation and phenotypic responses to bioactive factors: pluripotent cells; format: cell-based
Source text: as §1
Cryopreserved cells are thawed and plated in MSC-1 at 5, 10, or 20×10^3 cells per well of gelatinized 24-well plates following the standard protocol. Twenty-four hours after initial plating the medium is changed to testing medium (TM) 1 to 6 (TM-1, TM-2, TM-3, TM-4, TM-5, or TM-6). TM-1 to TM-4 consist of Ultraculture (cat. no. 12-725B, lot. nos. OMO455 [TM-1], 1M1724 [TM-2], 2M0420 [TM-3], or 2M0274 [TM-4], Bio-Whittaker, Walkersville, Md.), medium (EMEM or Opti-MEM 0.01 mM β-mercaptoethanol), and 1% (v/v) antibiotic-antimycotic, pH 7.4. TM-5 consists of 98% (v/v) medium, 1% (v/v) HS, and 1% (v/v) antibiotic-antimycotic, pH 7.4. TM-6 consists of 98.5% (v/v) medium, 0.5% (v/v) HS, and 1% (v/v) antibiotic-antimycotic, pH 7.4. […] Four testing media (TM#'s 1-4), each containing various concentrations of Ultraculture, were used as. […] The four Ultraculture-based testing media were: TM-1=15% (v/v) Ultraculture (Lot no. OMO455): 84% (v/v) medium: 1% (v/v) antibiotics; TM-2=15% (v/v) Ultraculture (Lot no. 1M1724): 84% (v/v) medium: 1% (v/v) antibiotics; TM-3=50% (v/v) Ultraculture (Lot no. 2M0420): 49% (v/v) medium: 1% (v/v) antibiotics; and TM-4=75% (v/v) Ultraculture (Lot no. 2M0274): 24% (v/v) medium: 1% (v/v) antibiotics. Pre-incubation for 24 hr in testing medium alone is used to wash out any potential synergistic components in the MSC-1 medium. Twenty-four hours later the testing medium is changed to one of the following. For controls, TM-1 to TM-6 alone is used. To identify clones of progenitor cells, the medium is replaced with TM-1 to TM-6 containing 2 μg/ml insulin (Sigma), an agent that accelerates the appearance of phenotypic expression markers in progenitor cells (TABLE 12). […]

[3] = presence and approximate distribution of differentiated phenotypes within the culture wells

B1: PDECGF: Platelet-derived endothelial cell growth factor (protein, UniProt P19971 11-482, looked up)
Thymidine phosphorylase: APPAPGDFSGEGSQGLPDPSPEPKQLPELIRMKRDGGRLSEADIRGFVAAVVNGSAQGAQIGAMLMAIRLRGMDLEETSVLTQALAQSGQQLEWPEAWRQQLVDKHSTGGVGDKVSLVLAPALAACGCKVPMISGRGLGHTGGTLDKLESIPGFNVIQSPEQMQVLLDQAGCCIVGQSEQLVPADGILYAARDVTATVDSLPLITASILSKKLVEGLSALVVDVKFGGAAVFPNQEQARELAKTLVGVGASLGLRVAAALTAMDKPLGRCVGHALEVEEALLCMDGAGPPDLRDLVTTLGGALLWLSGHAGTQAQGAARVAAALDDGSALGRFERMLAAQGVDPGLARALCSGSPAERRQLLPRAREQEELLAPADGTVELVRALPLALVLHELGAGRSRAGEPLRLGVGAELLVDVGQRLRRGTPWLRVHRDGPALSGPQSRALQEALVLSDRAPFAAPSPFAELVLPPQQ
With B1 the “Proliferation, Progenitor: number of times the agent increased the DNA content per well versus its respective control” value [1] was 1 times, the “Phenotypic Expression, Progenitor” value [1, 3] was “All+” and the “Proliferation, Pluripotent: number of times the agent increased the DNA content per well versus its respective control” value [2] was 1 times. For the same molecule, the “activity on pluripotent and progenitor stem cells, in words” value ([2]; pluripotent and progenitor cells) was “no measurable effect on either progenitor or pluripotent stem cells” and the “Phenotypic Expression, Pluripotent” value [2, 3] was 0.
